This passage reports stoichiometry N (Ty1 per spike trimer) results from article PMC7473855.

The target of this assay is SARS-CoV-2 prefusion-stabilized spike ectodomain with a C-terminal T4 fibritin trimerization motif (SARS-CoV-2) (UniProt P0DTC2). Nature of the assay: cryo-EM structure.

Ty1 nanobody (VHH), sequence (VHH): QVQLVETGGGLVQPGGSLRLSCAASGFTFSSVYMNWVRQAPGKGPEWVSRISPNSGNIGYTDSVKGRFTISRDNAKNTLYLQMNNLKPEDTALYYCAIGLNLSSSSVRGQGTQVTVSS

Regarding Ty1 nanobody (VHH), the stoichiometry N (Ty1 per spike trimer) was determined as 3.
